Data published in the RNAGym collection of RNA variant scans (doi:10.1073/pnas.2313332121).

B1: TPR t1 (parent)
chain: GACCAAUCUGCCCUCAGAGCUCGAGAACAUCUUCGGAUGCAGAGGAGGCAGGCUUCGGUGGCGCGAUAGCGCCAACGUCCUCAACCUCCAAUGCAUCCCACCACAUGAUGAUGCCUGAAGAGCCUUGGUUUUUUG

Variants of: B1
Assay: polymerase ribozyme fitness, log enrichment relative to wild type (log ratio); higher = more active; in vitro selection for triplet polymerase activity
Summary of the method: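 Mutant libraries of both subunits of a heterodimeric triplet polymerase ribozyme were PCR-built, transcribed, and selected once in triplicate, with frozen incubation at −7 °C and capture of gel-excised extended constructs on streptavidin beads before RT-PCR. Illumina sequencing of input and output libraries was filtered to genotypes with ≥10 input reads and ≥1 read per output. Fitness is the logarithm of genotype enrichment over wild-type enrichment, using inverse-variance-weighted replicate averages. The logarithm is base 2.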

Variant	polymerase ribozyme fitness (log ratio)
C20A C53A U59A	-2.85
A18U G128C	-4.63
A18C G19U	-5.8
G19A G61A U132C	-2.94
A18C C49U C72G	-3.75
G19U C40U	-3
G17U C70U U87A	-4.04
A18C C20U G36U C56G	-3.57
A18U A27G C53A G71C C85G	-8.07
G17U C102U	-4.64
A18U C40U A46C C82A C86A C124G	-4.93
A18G A46G C72U	-4.38
G19A G71C C124A	-2.56
A18C C20U C53U	-1.72
A18C G44U	-3.35
C20A A27C C62U	-4.63
A18G G42C C99A	-5.32
C20A C40U U132A	-2.39
G17U A105C U109A C124A	-5.37
A18G G48A U116G	-3.25
G19U U96A C114A	0.905
C20A A91G U109G	-4.02
G19A G71C G127C	-4.23
G19U G61C	-4.85

Variant	polymerase ribozyme fitness (log ratio)
A18U C124A U126A	-1.36
G19A U78G A84U C115U A121C	-5.73
A18C A27G	-5.05
G19A G44U G48C C49A C53A G69U C88G C104A G135C	-2.97
C20A A41G C53A G71U U78G	-5.43
G17U A18U G35C C72G G77U A103U U112G	-6.95
G19A C88A A95C C114G	-4.8
A18U A29G G42C G110U U112G	-5.42
A18U G57U C94G U112G	-5.68
G19U C20U C72A U131A	-3.4
G19A U87G A105C A111C	-4.37
C20A G61A C80G U109A G113U U133G	-7.36
A18C G63C	-4
G19A C34A C89A	-6.24
C20A A46C U78C A111C C114A	-3.99
G19A A95U C101U	-3.88
A18U G48U G52U G69U C79G	-2.76
A18U C40U	-3.83
A18C A27G A111U G128C	-6.38
G17U C40G A90G A95U C115G	-3.65
G17U C62G	-3.93
C20A A37G C49A G63A	-4.85
G19A A118G C124G	-1.63
G19C G42U C62U C76G U92G	-4.02

Variant	polymerase ribozyme fitness (log ratio)
A18U A26G C40G A43U G69A C97A U112A	-7.04
G17U A43C U59G C62G A75G C115U C124G	-5.23
A18C A43U A121G	0.81
A18C U92C C97U	-4.36
G17U C70U	-3.3
G19C G61C C88A	-4.49
G19A C73U C86U U96A G110A	-5.32
G19U U96G C114A	1.12
A18C A37C G127U U129A	-3.43
A18G U87G U109A	-2.3
C20A C85G	-3.75
A18U C86A C89U C123U	-3.07
G17C G63A G77U U81A A119G A121C	-5.23
A18U C28U A50U C98A	-7.62
G19U A41C U92A C94U C115U U133G	-5.87
C20A C62G G63U C114A G120A	-6.07
A18C G71U	-3.18
G19A A43U C49U U59A C124U	-1.73
G19A A43U C53U C56A	-3.04
A18C G47A	-2.19
A18U U59A A68G A91U G120U	-6.77
A18U C79A	-4.95
G19C G63C A111G C115G	-5.11
G19A C64U	-2.88

Variant	polymerase ribozyme fitness (log ratio)
C20A G35U	-5.42
A18U C73U U96A	-3.25
A18C A95C G128U	-5.8
C20A C28A G36A A90C G110U	-4.25
G19U U55C	-4.3
C20A G120A	-1.89
G19U A50U	-3.48
G17U U112C	-0.756
A18G U132A	-3.07
A18G A74C C79U	-4.7
G17U G23U A74U C123G	-5.53
A18G G35A G69A G117A	-5.21
A18C U32C A95C G117A U129C	-3.97
G19U C64U	-2.87
G19A G61A C104A G107A A121G	-5.44
G19C C20U C40A G61A U87A U112A	-5.56
C20G A37G A118U	-3.12
C20G A46U	-4.99
C20A C53U	-2.46
A18U C70A G113A G122A	-4.58
G19U U21A C79G C114A	-0.277
C20A U32G G35C G93A G113A U125A	-6.57
G19A G63A U92A	-4.56
C20A A27U A95G U131A	-3.17

Variant	polymerase ribozyme fitness (log ratio)
A18U C20U A50C G69U	-1.33
C20A U125A	-3.22
A18G G39C	-4.37
G17U C88A	-2.77
A18G C31G C88U C114G	-5.82
G19A G71C C115U G128U	-5.92
A18G C80U U92C G120U U129C U130A	-6.4
G19U A37U	-3.17
C20A U87G A100G C102A A119G	-5.22
C20A C104A	-3.99
A18G G93A	-3.21
G19U A50C C98U G110A A121G	-6.95
G19U U87G G110C U112G	-6.7
G19U G47C C97U C114G	-2.97
A18C G128C	-5.12
G19U A24U A41C A43U U92G C101G G110U	-6.86
A18G C53A C72U C85G	-4.61
G19U U87A U106C A118U	-4.56
A18C C64U U130C	-2.08
A18C A26G G71A G93A U112C G122A	-4.45
G17U U109A	-6.56
A18G G39U C53U G71A G120A	-4.4
A18C G52A	-2.7
G17U G48C	-2.61

Variant	polymerase ribozyme fitness (log ratio)
G17C G69U G122A	-2.46
C20A G93A	-3.32
A18C C88G G120A	-2.81
C20A C34A A41C G69U C73U	-5.14
C20A C28A G47C C97U G110C	-6.66
G17U C124A	-1.01
C20A U132A	-2.24
A18C G19U G48A G58C C62G C124A	-5.33
C20A C72A A118U	-1.46
A18C G35A U59C U112A	-6.14
A18C G61A	-2.53
A18C C20U C114A	0.845
A18C C40G	-4.09
C20A G48A C49G G61A U87G A90C	-5.02
A18U C28U G51A U59G G117C	-6.92
A18U C94U	-3.18
G17U U130C	-1.79
G17U U130A	-3.3
A18U G60U U130C	-1.84
A18C G120A	-1.48
G17U C101A G107U G120C G127A U132C	-6.51
A18G C53A A100C A103G C114A	-5.14
A18U U133G	-1.41
A18C G19A C40U C49U A50U C89U C124U	-5.69

Variant	polymerase ribozyme fitness (log ratio)
A18C A29G G107U C124G U125C	-7.59
C20A C49G U106C	-3.68
A18C C28U	-5.11
A18U A27G C72A C115A G120C	-3.08
A18U G113C	-3.57
G17U A18U G39U C123A	-4.71
G17U A37U	-2.44
G17U A37C	-2.42
G17U C70U U78G	-3.17
G19A G93U	-4.24
A18C C114G	-2.59
A18G C123U	-1.44
A18C C72G C124A U129A	-3.56
G19U G39U G93A U106C G120U	-5.8
A18U C22A G113A	-3.79
G17U C56G G113A	-5.78
C20A C79A	-3.62
G17C G120A	-3.31
G19A C49G G60U C85U A111C	-2.03
G17C G61U G93U C114A G127U	-6
A18G G45U C102U U109C U116G	-5.64
G19C G45A G60A U106A	-4.35
G19A G36U	-3.84
